± gives the uncertainty stated by the source.
Test: protein stability index of a GFP-peptide fusion (yeast GPS) (PSI 1-4); higher = more stable; sorted into four equal gates, so the index is relative within each strain
How it was run: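 Yeast carrying a pooled library were grown to mid-log phase in leucine-free medium. Each library plasmid expresses Cherry and has a tiled 17-residue yeast protein peptide fused downstream of GFP. Cells were sorted into four equal gates by GFP/Cherry ratio, and plasmids from each gate were PCR-amplified, Illumina-sequenced and assigned to strains by barcode. Summing, across gates, the read frequency times the gate number gave each peptide's protein stability index.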

| Sequence | protein stability index (doa10∆) | protein stability index (pdr5∆) | protein stability index (san1∆) | protein stability index (ubr1∆) |
| --- | --- | --- | --- | --- |
| GKEFGTTPEKPEETPLE [FAS2] | 2.77 ± 0.095 | 2.7 ± 0.076 | 2.6 ± 0.059 | 2.81 ± 0.069 |
| GKQIKSTIYNWGDNKLA [YML103C/NUP188] | 2.71 ± 0.17 | 3.18 ± 0.15 | 2.82 ± 0.11 | 2.87 ± 0.1 |
| GKRHIFDVNTLCLMTWK [CDC53] | 1.25 ± 0.061 | 1.75 ± 0.066 | 1.44 ± 0.14 | 2.08 ± 0.085 |
| GKRQLMKAVGEYMKRHP [SEC65] | 2.73 ± 0.082 | 3.31 ± 0.091 | 2.94 ± 0.071 | 2.47 ± 0.086 |
| GLCGAGTNNARLAQLLR [RPN1] | 2.44 ± 0.068 | 1.79 ± 0.047 | 1.4 ± 0.13 | 1.16 ± 0.042 |
| GLIVNPVKVSGTIKKIE [POP5] | 2.41 ± 0.16 | 2.97 ± 0.19 | 2.95 ± 0.12 | 2.26 ± 0.15 |
| GLTTVWLLSALGNSIVK [REC8] | 1.61 ± 0.085 | 2.31 ± 0.075 | 2.13 ± 0.14 | 1.77 ± 0.12 |
| GLVHDLCHPKKEKYGLA [SMC1] | 2.59 ± 0.11 | 2.84 ± 0.12 | 2.81 ± 0.29 | 2.17 ± 0.083 |
| GMGGGMPDMNEMMKMMQ [SRP54] | 3.17 ± 0.21 | 3.51 ± 0.23 | 3.58 ± 0.083 | 3.35 ± 0.081 |
| GMGIGFIDHHAAIRQPT [POP1] |  | 2.94 ± 0.086 |  | 2.49 ± 0.15 |
| GMNLLSNLSQNVVPYHR [SWI1] | 1.88 ± 0.079 | 2.88 ± 0.1 | 2.46 ± 0.098 | 2.43 ± 0.065 |
| GNAVTVTEDGTVVTVVS [RPL22A] | 1.38 ± 0.044 | 1.67 ± 0.078 | 1.45 ± 0.11 | 1.84 ± 0.065 |
| GNDNLIKAPTVAADGKL [YLR335W/NUP2] | 2.46 ± 0.097 | 2.93 ± 0.09 | 2.56 ± 0.077 | 2.95 ± 0.072 |
| GNDTISKFYNMKQPYVF [SSN2] | 3.12 ± 0.12 | 3.05 ± 0.11 | 3.2 ± 0.057 | 3.2 ± 0.065 |
| GNGKLSEHFLYLAKELN [RPN1] | 3.06 ± 0.23 | 2.19 ± 0.18 | 2.42 ± 0.2 | 2.98 ± 0.29 |
| GNIVKEFENKFQNSYKP [YMR129W/POM152] | 3.35 ± 0.081 | 3.14 ± 0.13 | 3.37 ± 0.053 | 3.39 ± 0.098 |
| GNNKDLKNTMQYLTNFS [RPB4] | 3.16 ± 0.08 | 3.02 ± 0.072 | 3.02 ± 0.075 | 3.13 ± 0.061 |
| GNNTELTKTTVNISAVD [YCG1] | 2.98 ± 0.07 | 3.24 ± 0.071 | 3.02 ± 0.054 | 3.12 ± 0.054 |
| GNQRKILQYSRTWYESF [YJR042W/NUP85] | 2.36 ± 0.099 | 2.79 ± 0.1 | 2.28 ± 0.17 | 2.21 ± 0.21 |
| GNRYLEKRLNLRVEHIK [RPL21A] | 3.05 ± 0.077 | 2.96 ± 0.086 | 3.08 ± 0.075 | 3.05 ± 0.071 |
| GNSESKVEKGVNIEPFN [LIN1] | 3.7 ± 0.13 | 3.67 ± 0.17 | 3.46 ± 0.08 | 3.13 ± 0.079 |
| GNVIQFIYGEDGMDAAH [RPO21] | 2.89 ± 0.065 | 2.58 ± 0.06 | 3.2 ± 0.063 | 3.32 ± 0.042 |
| GNYIKTENATENDQQDN [LIN1] | 2.51 ± 0.098 | 2.62 ± 0.071 | 2.05 ± 0.13 | 2.61 ± 0.086 |
| GQHKNNTSLNINGWKFE [SWP82] | 3.09 ± 0.075 | 3.21 ± 0.074 | 3.05 ± 0.063 | 2.99 ± 0.077 |
| GQKNEVRILRLITTNSV [SNF2] | 2.21 ± 0.052 | 1.95 ± 0.052 | 2.14 ± 0.058 | 2.08 ± 0.049 |
| GQLGLDDNDVPGPLPDT [YLR018C/POM34] | 3.27 ± 0.2 | 2.94 ± 0.14 | 2.37 ± 0.23 |  |

| Sequence | protein stability index (doa10∆) | protein stability index (pdr5∆) | protein stability index (san1∆) | protein stability index (ubr1∆) |
| --- | --- | --- | --- | --- |
| GQVAIKTLVYLEKCEAE [YCS4] |  |  |  | 2.92 ± 0.24 |
| GRENFVYANNPEVSDDG [SIR3] | 3.05 ± 0.096 | 3.08 ± 0.085 | 2.8 ± 0.1 | 3.03 ± 0.068 |
| GRGGSGWKPYYKLFIWL [YML031W/NDC1] | 1.5 ± 0.055 | 1.78 ± 0.052 | 1.41 ± 0.089 | 1.31 ± 0.049 |
| GRHVATCSSDQHIKVFK [YGL100W/SEH1] | 2.71 ± 0.066 | 2.76 ± 0.059 | 2.57 ± 0.08 | 2.75 ± 0.052 |
| GRMDMTRLYDYEIRDID [SSN2] | 3.29 ± 0.24 | 2.94 ± 0.15 | 3.38 ± 0.074 | 3.36 ± 0.096 |
| GRRKTWKRQNTLSLWRY [RPL15A] | 3.21 ± 0.1 | 3.11 ± 0.11 | 2.57 ± 0.085 | 3.37 ± 0.057 |
| GRTGRAANEGTAVSFVS [PRP28] | 2.7 ± 0.26 |  | 2.81 ± 0.27 | 2.7 ± 0.26 |
| GRTPNISNGTINIQKKL [SIR4] | 2.37 ± 0.058 | 2.64 ± 0.048 | 2.58 ± 0.063 | 2.16 ± 0.041 |
| GRVKALEQFMERNNIGE [YDL116W/NUP84] | 2.78 ± 0.12 | 2.68 ± 0.08 | 2.75 ± 0.15 | 3.07 ± 0.1 |
| GSCTRQLAGKSGEDTNV [YOR098C/NUP1] | 3.38 ± 0.2 | 3.51 ± 0.15 | 3.34 ± 0.12 | 3.17 ± 0.082 |
| GSEEKAFVPKKRKTNII [SRP54] | 3.12 ± 0.069 | 3.2 ± 0.077 | 2.88 ± 0.067 | 3.02 ± 0.06 |
| GSEVRLRDDTLPKAWIS [COR1] | 2.49 ± 0.053 | 2.75 ± 0.065 | 2.72 ± 0.075 | 2.69 ± 0.06 |
| GSGKSNMMDAISFVLGV [SMC1] | 3.18 ± 0.073 | 3.17 ± 0.074 | 3.24 ± 0.058 | 3.32 ± 0.043 |
| GSGSRLNRLPAASLGDM [RPL23A] | 2.28 ± 0.17 | 2.6 ± 0.18 | 2.66 ± 0.24 | 3.12 ± 0.22 |
| GSKKGQEGKISSVYRLK [RPL26A] | 3.15 ± 0.11 | 2.94 ± 0.096 | 2.7 ± 0.086 | 3.33 ± 0.11 |
| GSKMEAKNEDDPAHSLN [AAR2] | 2.34 ± 0.14 | 1.27 ± 0.13 | 1.23 ± 0.26 | 1.14 ± 0.15 |
| GSLACDTADEAKTLIPS [RPB4] | 3.06 ± 0.1 | 3.42 ± 0.086 | 3.33 ± 0.051 | 3.17 ± 0.071 |
| GSNNGFGNKPAGSTGFS [YGR119C/NUP57] | 1.65 ± 0.076 | 1.24 ± 0.083 | 1.27 ± 0.15 | 2.22 ± 0.16 |
| GSNQQSSTGGGLFGNKP [YGR119C/NUP57] | 3.36 ± 0.093 | 3.28 ± 0.084 | 3.23 ± 0.058 | 3.28 ± 0.042 |
| GSNVLKSGKTIVITSIT [RRP43] | 1.72 ± 0.063 | 2.57 ± 0.061 | 2.41 ± 0.067 | 2.33 ± 0.066 |
| GSQFIVVSLKEGMFANA [SMC2] |  | 3.64 ± 0.24 | 3.44 ± 0.2 | 3.4 ± 0.057 |
| GSTGGLGASFGQQQQQS [YGL172W/NUP49] | 2.76 ± 0.2 | 2.81 ± 0.076 | 2.12 ± 0.12 | 3.1 ± 0.1 |
| GSTSLIEGMEQRIIKEL [ARP7] | 3.19 ± 0.12 | 3.23 ± 0.12 | 2.98 ± 0.24 | 2.71 ± 0.21 |
| GSVFNMNGNTNANTVFA [YOR098C/NUP1] | 2.29 ± 0.095 | 3 ± 0.12 | 3.01 ± 0.17 | 2.44 ± 0.066 |
| GTENTERPPLLPILPIQ [YOR098C/NUP1] | 2.42 ± 0.17 | 3.08 ± 0.17 |  |  |
